Assay results reported in patent US20240132593A1 (published 2024).
“And” between values parts separate entries of the source, which are not always exact repeats. Identical values can stand only once. Like-named read-outs stand apart in the source and are kept apart here.

Columns and labels:
FCGR2A/CD32A (167R) = test: AlphaLISA FcγR2a binding assay
FCGR2A/CD32A (167H) = test: AlphaLISA FcγR2a binding assay
[1] = target: T1, FcRn receptor (biotinylated, AlphaLisa binding kit Perkin Elmer #AL3095C) (UniProt P55899 24-297; P61769 21-119, biotinylated (sites not given)); test: AlphaLISA FcRn binding assay
[2] = target: T2, immunoglobulin gamma Fc receptor 1 (FcγR1) (biotinylated, AlphaLisa binding kit Perkin Elmer #AL3081C) (UniProt P12314 16-288, biotinylated (sites not given)); test: AlphaLISA FcγR1 binding assay
T2 chain: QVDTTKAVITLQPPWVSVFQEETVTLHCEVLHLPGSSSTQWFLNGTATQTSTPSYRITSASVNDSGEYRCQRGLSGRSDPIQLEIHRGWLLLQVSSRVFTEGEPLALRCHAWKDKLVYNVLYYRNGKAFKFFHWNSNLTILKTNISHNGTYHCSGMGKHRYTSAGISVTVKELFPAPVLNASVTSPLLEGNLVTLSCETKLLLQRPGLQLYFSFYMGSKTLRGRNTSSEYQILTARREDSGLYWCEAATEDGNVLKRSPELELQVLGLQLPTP

[3] = target: T2, immunoglobulin gamma Fc receptor 1 …; test: AlphaLISA FcγR1 binding assay
[4] = target: T1, FcRn receptor (biotinylated, AlphaLisa …); test: AlphaLISA FcRn binding assay; remark: listed apart in the source
FcRn = FcRn (UniProt P55899 24-297; P61769 21-119, biotinylated (sites not given)); test: AlphaLISA FcRn binding assay
FCGR1/CD64 = target: T3, FCGR1/CD64 (UniProt P12314 16-288, biotinylated (sites not given)); test: AlphaLISA FcγR1 binding assay
T3 chain: T2 chain

B1: Ab No. 150.1 (YTE) (antibody)
light: not shown
heavy: QVQLQESGPGLVKPSETLSLTCTVSGGSISSYYWSWIRQPPGKGLEWIGYIYYSGSTNYNPSLKSRVTISVDTSKSQFSLKLSSVTAADTAVYYCARDIPAFAFDIWGQGTMVIVSSASTKGPSVFPLAPSSKSTSGGTAALGCLVKDYFPEPVTVSWNSGALTSGVHTFPAVLQSSGLYSLSSVVTVPSSSLGTQTYICNVNHKPSNTKVDKKVEPKSCDKTHTCPPCPAPELLGGPSVFLFPPKPKDTLYITREPEVTCVVVDVSHEDPEVKFNWYVDGVEVHNAKTKPREEQYNSTYRVVSVLTVLHQDWLNGKEYKCKVSNKALPAPIEKTISKAKGQPREPQVYTLPPSRDELTKNQVSLTCLVKGFYPSDIAVEWESNGQPENNYKTTPPVLDSDGSFFLYSKLTVDKSRWQQGNVFSCSVMHEALHNHYTQKSLSLSPGK
EC50 (FCGR2A/CD32A (167R)): 275 nM and 41.3 µg/mL | EC50 (FCGR2A/CD32A (167H)): 18.3 µg/mL and 122 nM

B2: Antibody No. 150.1 (antibody)
light: not shown
heavy: B1 heavy
EC50 [1]: 0.142 µg/mL | EC50 [2]: 5.8 nM and 0.868 µg/mL

B3: Ab No. 420.1 (YTE) (antibody)
chain 1: MGWSCIILFLVATATGVHSQLQLQESGPGLVKPSETLSLTCIVSGGSISSSGYYWGWIRQPPGKGLEWIGSIFYSGNTHYNPSLKSRVTIPVDTSKNQFSLKLSSVTAADSAVYYCARRDILTGPFDYWGQGTLVTVSSAASTKGPSVFPLAPSSKSTSGGTAALGCLVKDYFPEPVTVSWNSGALTSGVHTFPAVLQSSGLYSLSSVVTVPSSSLGTQTYICNVNHKPSNTKVDKKVEPKSCDKTHTCPPCPAPELLGGPSVFLFPPKPKDTLYITREPEVTCVVVDVSHEDPEVKFNWYVDGVEVHNAKTKPREEQYNSTYRVVSVLTVLHQDWLNGKEYKCKVSNKALPAPIEKTISKAKGQPREPQVYTLPPSRDELTKNQVSLTCLVKGFYPSDIAVEWESNGQPENNYKTTPPVLDSDGSFFLYSKLTVDKSRWQQGNVFSCSVMHEALHNHYTQKSLSLSPGK
chain 2: not shown
EC50 [3]: 14.7 nM and 2.2 µg/mL

B4: Ab No. 420.1(YTE) (antibody)
chain 1: B3 chain 1
chain 2: not shown
EC50 [4]: 0.376 nM and 0.0565 µg/mL

B5: Ab No. 420.4(YTE) (antibody)
chain 1: MGWSCIILFLVATATGVHSQLQLQESGPGLVKPSETLSLTCIVSGGSISSSGYYWGWIRQPPGKGLEWIGSIFYSGNTHYNPSLKSRVTIPVDTSKNQFSLKLSSVTAADSAVYYCARRDILTGPFDYWGQGTLVTVSSAASTKGPSVFPLAPCSRSTSESTAALGCLVKDYFPEPVTVSWNSGALTSGVHTFPAVLQSSGLYSLSSVVTVPSSSLGTKTYTCNVDHKPSNTKVDKRVESKYGPPCPSCPAPEFLGGPSVFLFPPKPKDTLYITREPEVTCVVVDVSQEDPEVQFNWYVDGVEVHNAKTKPREEQFNSTYRVVSVLTVLHQDWLNGKEYKCKVSNKGLPSSIEKTISKAKGQPREPQVYTLPPSQEEMTKNQVSLTCLVKGFYPSDIAVEWESNGQPENNYKTTPPVLDSDGSFFLYSRLTVDKSRWQEGNVFSCSVMHEALHNHYTQKSLSLSLGK
chain 2: not shown
EC50 [4]: 0.486 nM and 0.0729 µg/mL

B6: Ab No. 420.4 (YTE) (antibody)
chain 1: B5 chain 1
chain 2: not shown
EC50 [3]: 139 nM and 20.8 µg/mL

B7: VSTB174 (WT) (antibody)
chain 1: not shown
chain 2: DIQMTQSPSSLSASVGDRVTITCRASQSIDTRLNWYQQKPGKAPKLLIYSASSLQSGVPSRFSGSGSGTDFTLTISSLQPEDFATYYCQQSAYNPITFGQGTKVEIKRTVAAPSVFIFPPSDEQLKSGTASVVCLLNNFYPREAKVQWKVDNALQSGNSQESVTEQDSKDSTYSLSSTLTLSKADYEKHKVYACEVTHQGLSSPVTKSFNRGEC
EC50 (FcRn): 1.5 µg/mL | EC50 (FCGR1/CD64): 3.6 nM and 0.534 µg/mL | EC50 (FCGR2A/CD32A (167R)): 4.6 µg/mL | EC50 (FCGR2A/CD32A (167H)): 2.1 µg/mL
